Experimental findings from publication PMC6482854 are described below.

Experiment [1] deals with P22 coat protein (bacteriophage P22) (UniProt P26747). Briefly: SEC-MALS. For orientation: In gel filtration, larger molecules generally elute earlier.
Experiment [2] has as its target P22-StAv particles (in vitro assembled) (bacteriophage P22 | not stated) (UniProt P26747). Briefly: SEC-MALS.

UniProt P26747, sequence (P26747 whole entry): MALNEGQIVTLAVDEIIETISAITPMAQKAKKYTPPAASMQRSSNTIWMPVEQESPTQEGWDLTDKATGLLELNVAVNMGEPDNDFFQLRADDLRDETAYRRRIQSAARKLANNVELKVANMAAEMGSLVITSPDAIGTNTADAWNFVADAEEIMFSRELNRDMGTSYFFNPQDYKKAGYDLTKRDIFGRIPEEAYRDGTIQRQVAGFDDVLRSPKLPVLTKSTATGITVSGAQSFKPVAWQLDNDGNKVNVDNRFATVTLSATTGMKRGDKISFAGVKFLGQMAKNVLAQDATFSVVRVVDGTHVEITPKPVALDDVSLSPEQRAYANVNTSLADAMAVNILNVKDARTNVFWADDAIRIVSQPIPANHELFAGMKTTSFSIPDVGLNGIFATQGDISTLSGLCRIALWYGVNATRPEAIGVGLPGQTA

Turning to “6xhis-StAv(15–159)-GAAG-ENLYFQS-GAAG-SP(142–303) (from UniProt P26748 142-303)”, the copies of StAv-SP per capsid (copies per capsid) in experiment [1] turned out to be 328.

For “biotinylated Cys-6xhis-SP(142–303)-GGGGG-ENLYFQS-GGGGG-GFP (from UniProt P26748 142-303)”, in experiment [2], the stoichiometry N (copies per capsid) was determined as 36.
